In doi:10.1101/2020.08.20.256677v1 (biorxiv, 2020) one finds Kd, Km and kcat data, which are given here for two molecules.

One series deals with DnfA (Alcaligenes ammonioxydans, UniProt A0ABX8SXK4). Put plainly: biochemical.
Substrate in the series “purified protein”: NO
Put plainly: purified protein. The settings on record: 480 μM FAD, 10 mM NADH, 21% O2, 0.6 μM DnfA, 30 °C, 25-400 μM NH2OH.

The Kd is a measure of binding affinity in units of concentration. What is called Km is the concentration of substrate that gives half-maximal velocity. The term kcat denotes the maximal rate divided by the concentration of active sites.

On to `NO` [hydroxylamine], for which the Kd at DnfA was 160 ± 20 nM.

B1: DnfA (Alcaligenes ammonioxydans) (protein)
chain: MTIKSYETDDAVRNMLQKLSVLWKNRAAVNQELPDYNNLAFDPNKADFSECLLPFREHQAWLEAPEELKSQCLSYAWGIYNLKTIYVECNVVTPSCEDIIKTPPPSANRNLLQDVMSQALLDEALHTRMSIMACNYIYSMRGLQPLDFTNFNLVQWRNDILSQCSSESERRLTRFAIACASETLITDYLKTMAEDKSIQTICHEVTRTHAMDEWSHSSVFSFVASDIIHGLSQKEREHMRAVILRTVEMFANNEMGAWEKVFSMVNFPNARDILHDTGDSNEIGVYTGSVESLIERIGLNSKSGQAQAQDEQQEALQ
Consider B1, for which, in the series “purified protein”, the Michaelis-Menten constant (Km) was 48.1 ± 6.0 µM and the kcat is 0.31 ± 0.02 s⁻¹.
